US7063946B2, “Methods, reagents, kits and apparatus for protein function analysis” (Meso Scale Technologies, LLC., priority 2001, dated 2006)

What was measured:
[1] = target: T1, EGFR-pY1148 (SEQ ID NO: 9) (Homo sapiens, UniProt P00533); assay: Single-well 4-spot assay for multiple peptide-protein interactions; format: binding; conditions: 4-spot plate
T1 construct: phosphotyrosine at Tyr1148 (chemical modification); purchased New England Peptide, Fitchburg Mass; host or cells: chemical synthesis
From the text: (§1) Four phosphopeptides and their cognate binding proteins (Table 14) were selected for an integrated assay of multiple peptide-protein interaction in 4-spot Multi-Array plates. The IkBa-24pp peptide and its binding protein, βTRCP, are described in Example 10. […] These phosphotyrosine containing peptides are recognized by different adaptor or effecter proteins of the receptor tyrosine kinase signaling pathway.
(§2) These four peptides were coupled to BSA carrier protein through cystine residue. After purification on PD-10 gel filtration columns, the peptide-BSA conjugates were then deposited on the assay domains of a 4-spot multi-array IPR plate (i.e., in one of the four exposed regions of working electrode defined by the dielectric layer) with an automated micro-dispensing system (Bio-Dot Dispenser, Bio-Dot, Irvine Calif.). […] These plates are dried then used or stored under desiccated conditions. A few hours prior to usage the plates were rehydrated and blocked with 3% BSA in PBS. […] The in vitro translated and biotin-labeled proteins were then assayed in the 4-spot multi-array IPR plates under conditions described in Example 10.

[2] = target: T2, EGFR-pY1068 (SEQ ID NO: 7) (Homo sapiens, UniProt P00533); assay: as above; format: binding; conditions: 4-spot plate
T2 construct: phosphotyrosine at Tyr1068 (chemical modification); purchased New England Peptide, Fitchburg Mass; host or cells: chemical synthesis
From the text: as §1, §2

[3] = system: pooled phosphopeptide:BSA conjugates (Pools A-D); assay: Coded multiplex phosphopeptide binding assay with pooled peptide:BSA conjugates on 4 spots; conditions: for ECL signal, spot A: Pool A, EGFR-pTyr1148, IkBa-24ppC, Myc-p58Tp62S; for ECL signal, spot B: Pool B, EGFR-pTyr992, EGFR-pTyr1148, Smad3C; for ECL signal, spot C: Pool C, EGFR-pTyr1068, IkBa-24ppC, Smad3C; for ECL signal, spot D: Pool D, EGFR-pTyr992, EGFR-pTyr1068, Myc-p58Tp62S
From the text: To prepare the Multi-Spot IPR plates, in this example we made use of pools of the peptide:BSA conjugates to coat each of 4 spots per well in a 96 well plate. To achieve this we made the following pools; • Pool A; EGFR-pTyr1148, IkBa-24ppC, Myc-p58Tp62S. • Pool B; EGFR-pTyr992, EGFR-pTyr1148, Smad3C. • Pool C; EGFR-pTyr1068, IkBa-24ppC, Smad3C. • Pool D; EGFR-pTyr992, EGFR-pTyr1068, Myc-p58Tp62S.
This combination of the various peptides results in any single peptide being present in two pools. Each of these four pools is then spotted on to a unique spot in a 4 spot array. In this way any single binding protein with specificity for only one of the peptides would bind to two spots; the identity of the two spots would allow the identification of the peptide involved in the binding reaction.
Typically approximately 120 fmole of peptide:BSA conjugate in 0.25 μl was deposited on each spot of a 4-spot multi-array IPR plates using a BioDot Dispenser (Bio-Dot Inc., vIrvine Calif.). At this stage, the plates were dried then used or stored under desiccated condition. A few hours prior to usage, the plates were rehydrated and blocked with 3% BSA, in PBS.
To test the system the following EST clones IMAGE # 3491843, 4237375, 4398016, 4419252, 3872466, 3907115 were obtained. These clones express the following genes βTRCP1, βTRCP2, Grb2, PLCγ, CBP and Shc1, respectively. […] These DNAs were used to produce proteins as described in the Materials and Methods. Proteins were transferred to a well of the 4 spot peptide-coated and BSA blocked ECL plates. The binding assay (using Sulfo-TAG labeled streptavidin as a detection agent) was carried our according to the procedures described in Example 11.

[4] = target: T3, c-Myc peptide [SEQ ID No. 4] (Homo sapiens, UniProt P01106); assay: Phosphopeptide binding assay, peptide-BSA coated IPR plate
T3 construct: phosphothreonine (T58) and phosphoserine (S62) (chemical modification); purchased New England Peptide, Fitchburg Mass; host or cells: chemical synthesis
Experimental: A phosphopeptide derived from the IkBa degradation motif (SEQ ID NO: 1) and a phosphopeptide derived from c-Myc (SEQ ID NO: 4) were chemically synthesized (New England Peptide, Fitchburg Mass.) with the following sequences respectively:
To prepare IPR plates for use in the assay, approximately 2.4 pmol BSA, 1.2 pmole IκBα-24pp peptide-BSA conjugate or 1.2 pmole of Myc-p58Tp62S peptide-BSA conjugate in 2.5 μl were deposited on the carbon working electrode surface in a single well of a 96-well plate. At this stage, the plates were dried then used or stored under desiccated condition. A few hours prior to usage, the plates were rehydrated and blocked with 3% BSA, in PBS.
Two βTRCP genes, βTRCP1 and βTRCP2, are present in the human genome on […], respectively. The coding sequence of these two genes shares over 90% identity and several full-length cDNAs of which are available as EST clones from Incyte (Palo Alto, Calif.) IMAGE #3491843 and 4237375. Also included were three other non specific EST clones as controls (Incyte, Palo alto, Calif.). […] These DNAs were used to produce the βTRCP protein and proteins encoded by the other DNAs as described in the Example 7. Proteins were transferred into wells of the peptide-coated and BSA-blocked IPR plates. […] The ECL signals were measured using an imaging plate reader (IPR).

T3 sequence (P01106 with tags, fused parts or gaps limits assumed): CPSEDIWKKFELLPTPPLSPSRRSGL

B1: 4237375: IMAGE clone protein: βTRCP2 (protein)
chain: MEPDSVIEDKTIELMCSVPRSLWLGCANLVESMCALSCLQSMPSVRCLQISNGTSSVIVSRKRPSEGNYQKEKDLCIKYFDQWSESDQVEFVEHLISRMCHYQHGHINSYLKPMLQRDFITALPEQGLDHIAENILSYLDARSLCAAELVCKEWQRVISEGMLWKKLIERMVRTDPLWKGLSERRGWDQYLFKNRPTDGPPNSFYRSLYPKIIQDIETIESNWRCGRHNLQRIQCRSENSKGVYCLQYDDEKIISGLRDNSIKIWDKTSLECLKVLTGHTGSVLCLQYDERVIVTGSSDSTVRVWDVNTGEVLNTLIHHNEAVLHLRFSNGLMVTCSKDRSIAVWDMASATDITLRRVLVGHRAAVNVVDFDDKYIVSASGDRTIKVWSTSTCEFVRTLNGHKRGIACLQYRDRLVVSGSSDNTIRLWDIECGACLRVLEGHEELVRCIRFDNKRIVSGAYDGKIKVWDLQAALDPRAPASTLCLRTLVEHSGRVFRLQFDEFQIISSSHDDTILIWDFLNVPPSAQNETRSPSRTYTYISR
[1]
  ECL signal, spot 2 EGFR-pY1148: 35
[2]
  ECL signal, spot 3 EGFR-pY1068: 24
[3]
  Code (pattern of positive spots): A, C
  Peptide determined from code: IkBa-24ppC
  ECL signal, spot A: 7791
  ECL signal, spot B: 105
  ECL signal, spot C: 8615
  ECL signal, spot D: 74
[4]
  Average ECL signal, c-Myc peptide [SEQ ID No. 4]: 896

B2: 4419252: IMAGE clone protein: PLCγ (protein)
chain: MAGAASPCANGCGPGAPSDAEVLHLCRSLEVGTVMTLFYSKKSQRPERKTFQVKLETRQITWSRGADKIEGAIDIREIKEIRPGKTSRDFDRYQEDPAFRPDQSHCFVILYGMEFRLKTLSLQATSEDEVNMWIKGLTWLMEDTLQAPTPLQIERWLRKQFYSVDRNREDRISAKDLKNMLSQVNYRVPNMRFLRERLTDLEQRSGDITYGQFAQLYRSLMYSAQKTMDLPFLEASTLRAGERPELCRVSLPEFQQFLLDYQGELWAVDRLQVQEFMLSFLRDPLREIEEPYFFLDEFVTFLFSKENSVWNSQLDAVCPDTMNNPLSHYWISSSHNTYLTGDQFSSESSLEAYARCLRMGCRCIELDCWDGPDGMPVIYHGHTLTTKIKFSDVLHTIKEHAFVASEYPVILSIEDHCSIAQQRNMAQYFKKVLGDTLLTKPVEISADGLPSPNQLKRKILIKHKKLAEGSAYEEVPTSMMYSENDISNSIKNGILYLEDPVNHEWYPHYFVLTSSKIYYSEETSSDQGNEDEEEPKEVSSSTELHSNEKWFHGKLGAGRDGRHIAERLLTEYCIETGAPDGSFLVRESETFVGDYTLSFWRNGKVQHCRIHSRQDAGTPKFFLTDNLVFDSLYDLITHYQQVPLRCNEFEMRLSEPVPQTNAHESKEWYHASLTRAQAEHMLMRVPRDGAFLVRKRNEPNSYAISFRAEGKIKHCRVQQEGQTVMLGNSEFDSLVDLISYYEKHPLYRKMKLRYPINEEALEKIGTAEPDYGALYEGRNPGFYVEANPMPTFKCAVKALFDYKAQREDELTFIKSAIIQNVEKQEGGWWRGDYGGKKQLWFPSNYVEEMVNPVALEPEREHLDENSPLGDLLRGVLDVPACQIAIRPEGKNNRLFVFSISMASVAHWSLDVAADSQEELQDWVKKIREVAQTADARLTEGKIMERRKKIALELSELVVYCRPVPFDEEKIGTERACYRDMSSFPETKAEKYVNKAKGKKFLQYNRLQLSRIYPKGQRLDSSNYDPLPMWICGSQLVALNFQTPDKPMQMNQALFMTGRHCGYVLQPSTMRDEAFDPFDKSSLRGLEPCAISIEVLGARHLPKNGRGIVCPFVEIEVAGAEYDSTKQKTEFVVDNGLNPVWPAKPFHFQISNPEFAFLRFVVYEEDMFSDQNFLAQATFPVKGLKTGYRAVPLKNNYSEDLELASLLIKIDIFPAKENGDLSPFSGTSLRERGSDASGQLFHGRAREGSFESRYQQPFEDFRISQEHLADHFDSRERRAPRRTRVNGDNRL
[1]
  ECL signal, spot 2 EGFR-pY1148: 110
[2]
  ECL signal, spot 3 EGFR-pY1068: 1485
[3]
  Code (pattern of positive spots): B, C, D
  Peptide determined from code: EGFR-pTyr992 & EGFR-pTyr1068
  ECL signal, spot A: 239
  ECL signal, spot B: 2783
  ECL signal, spot C: 1550
  ECL signal, spot D: 3388
